# What was measured:
# [1] = target: temperature-sensitive p53 (pMSVp53Val135) (UniProt P02340); assay: cell-based or functional assay
# GST = target: T1, GST (UniProt P08515 1-218 = GST); assay: GST pull-down with glutathione-Sepharose, anti-His Western blot (FIG. 9, Lanes 4 to 6)
# T1 construct: also called glutathione S-transferase
# Method: Different striamins conjugated to histidines were reacted with p53 conjugated to GST in vitro, and the reaction was immunoprecipitated with glutathione Sepharose beads, followed by Western blot analysis using anti-histidine-tag and anti-p53 antibodies (“GST-p53 pull” in the figure).
# Each protein purified in step (1) (2 to 5 μg) was mixed with GST or GST-p53 (1 μg, Santa Cruz) in NP40-lysis buffer (500 μl). After two hours, glutathione-Sepharose beads (20 μl) were added to the suspension and rotated for mixing for one hour at 4° C. The beads were precipitated by centrifugation, washed three times with TBS and then boiled in SDS-sample buffer. Subsequently, SDS-PAGE was carried out for each sample, followed by detection of the respective striamins conjugated to the histidines by Western blotting using an anti-histidine-tag antibody. In addition, p53 was detected by Western blotting using anti-p53 antibody.
# T1 sequence (P08515 whole entry): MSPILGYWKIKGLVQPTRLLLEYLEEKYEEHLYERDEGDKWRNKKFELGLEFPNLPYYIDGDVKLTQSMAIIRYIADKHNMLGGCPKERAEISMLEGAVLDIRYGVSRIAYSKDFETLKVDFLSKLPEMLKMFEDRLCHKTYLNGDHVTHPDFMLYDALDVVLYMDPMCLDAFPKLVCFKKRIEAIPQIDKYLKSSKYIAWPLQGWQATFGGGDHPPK
Molecule,p53 activity (p53-responsive luciferase reporter PG-13luc in p53-/- MEF cells) [1],β-gal positive cells (p53-responsive β-gal reporter pRGC fos-lacZ in microinjected p53-/- MEF cells) [1],binding result (GST)
"striamin (full-length, untagged)",4.6 fold,5%,
"C-striamin with a histidine tag (pQE30/C-striamin) (other, not shown: N-terminal His tag encoded by the pQE30 vector (Qiagen)) QCSPKQKGRLPRGWASLPSLSVLVRALRASNAFSLGNYYCCPWRGTRWAKGQPGEWARPRASSPSAHREGVAVT",,,no binding
"N-striamin with a histidine tag (pQE30/N-striamin) (other, not shown: N-terminal His tag encoded by the pQE30 vector (Qiagen)) MKGLAGEWHQDSGLDIREKAEDFSLPWLLPRLMALVMQEEGRFRSDRNHGYLREWLRIQALTACLPSPLGRVHYA",,,no binding
"full-length striamin with a histidine tag (pQE30/full-length striamin) (other, also called pQE30/striamin; His-tagged striamin; not shown: N-terminal His tag encoded by the pQE30 vector (Qiagen)) MKGLAGEWHQDSGLDIREKAEDFSLPWLLPRLMALVMQEEGRFRSDRNHGYLREWLRIQALTACLPSPLGRVHYAQCSPKQKGRLPRGWASLPSLSVLVRALRASNAFSLGNYYCCPWRGTRWAKGQPGEWARPRASSPSAHREGVAVT",,,no binding
